# According to IntAct's records for PubMed 31515488:
# B1: Cytohesin-4 (Homo sapiens), Q9UIA0 (parent)
# chain: MDLCHPEPAELSSGETEELQRIKWHRKQLLEDIQKLKDEIADVFAQIDCFESAEESRMAQKEKELCIGRKKFNMDPAKGIQYFIEHKLLTPDVQDIARFLYKGEGLNKTAIGTYLGERDPINLQVLQAFVDCHEFANLNLVQALRQFLWSFRLPGEAQKIDRMMEAFATRYCLCNPGVFQSTDTCYVLSFSIIMLNTSLHNPNVRDRPPFERFVSMNRGINNGSDLPEDQLRNLFDSIKSEPFSIPEDDGNDLTHTFFNPDREGWLLKLGGRVKTWKRRWFILTDNCLYYFEFTTDKEPRGIIPLENLSVQKVDDPKKPFCLELYNPSCRGQKIKACKTDGDGRVVEGKHESYRISATSAEERDQWIESIRASITRVPFYDLVSTRKKKIASKQ
# B2: Notch homolog 2 N-terminal-like protein A (Homo sapiens), Q7Z3S9 (parent)
# chain: MCVTYHNGTGYCKCPEGFLGEYCQHRDPCEKNRCQNGGTCVAQAMLGKATCRCASGFTGEDCQYSTSHPCFVSRPCLNGGTCHMLSRDTYECTCQVGFTGKECQWTDACLSHPCANGSTCTTVANQFSCKCLTGFTGQKCETDVNECDIPGHCQHGGTCLNLPGSYQCQCLQGFTGQYCDSLYVPCAPSPCVNGGTCRQTGDFTFECNCLPETVRRGTELWERDREVWNGKEHDEN
# partner: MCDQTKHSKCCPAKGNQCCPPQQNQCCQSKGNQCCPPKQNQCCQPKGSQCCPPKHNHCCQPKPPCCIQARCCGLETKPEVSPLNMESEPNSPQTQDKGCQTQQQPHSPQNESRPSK
# B3: Serine/arginine-rich splicing factor 4 (Homo sapiens), Q08170 (parent)
# chain: MPRVYIGRLSYQARERDVERFFKGYGKILEVDLKNGYGFVEFDDLRDADDAVYELNGKDLCGERVIVEHARGPRRDGSYGSGRSGYGYRRSGRDKYGPPTRTEYRLIVENLSSRCSWQDLKDYMRQAGEVTYADAHKGRKNEGVIEFVSYSDMKRALEKLDGTEVNGRKIRLVEDKPGSRRRRSYSRSRSHSRSRSRSRHSRKSRSRSGSSKSSHSKSRSRSRSGSRSRSKSRSRSQSRSRSKKEKSRSPSKEKSRSRSHSAGKSRSKSKDQAEEKIQNNDNVGKPKSRSPSRHKSKSKSRSRSQERRVEEEKRGSVSRGRSQEKSLRQSRSRSRSKGGSRSRSRSRSKSKDKRKGRKRSREESRSRSRSRSKSERSRKRGSKRDSKAGSSKKKKKEDTDRSQSRSPSRSVSKEREHAKSESSQREGRGESENAGTNQETRSRSRSNSKSKPNLPSESRSRSKSASKTRSRSKSRSRSASRSPSRSRSRSHSRS
# B4: Prolyl 4-hydroxylase subunit alpha-3 (Homo sapiens), Q7Z4N8 (parent)
# chain: MGPGARLAALLAVLALGTGDPERAAARGDTFSALTSVARALAPERRLLGLLRRYLRGEEARLRDLTRFYDKVLSLHEDSTTPVANPLLAFTLIKRLQSDWRNVVHSLEASENIRALKDGYEKVEQDLPAFEDLEGAARALMRLQDVYMLNVKGLARGVFQRVTGSAITDLYSPKRLFSLTGDDCFQVGKVAYDMGDYYHAIPWLEEAVSLFRGSYGEWKTEDEASLEDALDHLAFAYFRAGNVSCALSLSREFLLYSPDNKRMARNVLKYERLLAESPNHVVAEAVIQRPNIPHLQTRDTYEGLCQTLGSQPTLYQIPSLYCSYETNSNAYLLLQPIRKEVIHLEPYIALYHDFVSDSEAQKIRELAEPWLQRSVVASGEKQLQVEYRISKSAWLKDTVDPKLVTLNHRIAALTGLDVRPPYAEYLQVVNYGIGGHYEPHFDHATSPSSPLYRMKSGNRVATFMIYLSSVEAGGATAFIYANLSVPVVRNAALFWWNLHRSGEGDSDTLHAGCPVLVGDKWVANKWIHEYGQEFRRPCSSSPED
# partner: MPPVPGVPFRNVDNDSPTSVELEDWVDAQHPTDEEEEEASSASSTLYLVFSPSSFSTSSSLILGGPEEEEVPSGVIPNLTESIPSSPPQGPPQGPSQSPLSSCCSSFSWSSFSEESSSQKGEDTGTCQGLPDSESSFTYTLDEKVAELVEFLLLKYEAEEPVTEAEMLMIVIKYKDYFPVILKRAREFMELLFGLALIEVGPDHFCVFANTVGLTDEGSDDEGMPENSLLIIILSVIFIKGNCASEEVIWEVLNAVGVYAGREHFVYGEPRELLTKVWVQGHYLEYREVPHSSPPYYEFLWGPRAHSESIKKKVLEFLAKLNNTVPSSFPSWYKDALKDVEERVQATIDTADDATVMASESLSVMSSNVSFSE
# B5: NF-kappa-B inhibitor delta (Homo sapiens), Q8NI38 (parent)
# chain: MEAGPWRVSAPPSGPPQFPAVVPGPSLEVARAHMLALGPQQLLAQDEEGDTLLHLFAARGLRWAAYAAAEVLQVYRRLDIREHKGKTPLLVAAAANQPLIVEDLLNLGAEPNAADHQGRSVLHVAATYGLPGVLLAVLNSGVQVDLEARDFEGLTPLHTAILALNVAMRPSDLCPRVLSTQARDRLDCVHMLLQMGANHTSQEIKSNKTVLHLAVQAANPTLVQLLLELPRGDLRTFVNMKAHGNTALHMAAALPPGPAQEAIVRHLLAAGADPTLRNLENEQPVHLLRPGPGPEGLRQLLKRSRVAPPGLSS
# B6: Keratin, type II cytoskeletal 2 epidermal (Homo sapiens), P35908 (parent)
# chain: MSCQISCKSRGRGGGGGGFRGFSSGSAVVSGGSRRSTSSFSCLSRHGGGGGGFGGGGFGSRSLVGLGGTKSISISVAGGGGGFGAAGGFGGRGGGFGGGSSFGGGSGFSGGGFGGGGFGGGRFGGFGGPGGVGGLGGPGGFGPGGYPGGIHEVSVNQSLLQPLNVKVDPEIQNVKAQEREQIKTLNNKFASFIDKVRFLEQQNQVLQTKWELLQQMNVGTRPINLEPIFQGYIDSLKRYLDGLTAERTSQNSELNNMQDLVEDYKKKYEDEINKRTAAENDFVTLKKDVDNAYMIKVELQSKVDLLNQEIEFLKVLYDAEISQIHQSVTDTNVILSMDNSRNLDLDSIIAEVKAQYEEIAQRSKEEAEALYHSKYEELQVTVGRHGDSLKEIKIEISELNRVIQRLQGEIAHVKKQCKNVQDAIADAEQRGEHALKDARNKLNDLEEALQQAKEDLARLLRDYQELMNVKLALDVEIATYRKLLEGEECRMSGDLSSNVTVSVTSSTISSNVASKAAFGGSGGRGSSSGGGYSSGSSSYGSGGRQSGSRGGSGGGGSISGGGYGSGGGSGGRYGSGGGSKGGSISGGGYGSGGGKHSSGGGSRGGSSSGGGYGSGGGGSSSVKGSSGEAFGSSVTFSFR
# partner: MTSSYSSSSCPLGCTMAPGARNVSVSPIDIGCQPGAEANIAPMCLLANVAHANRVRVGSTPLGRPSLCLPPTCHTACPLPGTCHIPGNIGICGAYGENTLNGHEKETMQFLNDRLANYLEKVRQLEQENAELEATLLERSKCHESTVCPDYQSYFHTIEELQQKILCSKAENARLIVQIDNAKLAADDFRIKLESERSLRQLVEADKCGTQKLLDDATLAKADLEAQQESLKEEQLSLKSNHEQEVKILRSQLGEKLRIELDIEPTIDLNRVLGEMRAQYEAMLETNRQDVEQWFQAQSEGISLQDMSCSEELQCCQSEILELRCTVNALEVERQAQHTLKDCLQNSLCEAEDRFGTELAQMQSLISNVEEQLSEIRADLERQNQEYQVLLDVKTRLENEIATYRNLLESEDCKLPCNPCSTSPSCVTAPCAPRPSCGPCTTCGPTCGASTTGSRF
# B7: Alpha-ketoglutarate-dependent dioxygenase alkB homolog 3 (Homo sapiens), Q96Q83 (parent)
# chain: MEEKRRRARVQGAWAAPVKSQAIAQPATTAKSHLHQKPGQTWKNKEHHLSDREFVFKEPQQVVRRAPEPRVIDREGVYEISLSPTGVSRVCLYPGFVDVKEADWILEQLCQDVPWKQRTGIREDITYQQPRLTAWYGELPYTYSRITMEPNPHWHPVLRTLKNRIEENTGHTFNSLLCNLYRNEKDSVDWHSDDEPSLGRCPIIASLSFGATRTFEMRKKPPPEENGDYTYVERVKIPLDHGTLLIMEGATQADWQHRVPKEYHSREPRVNLTFRTVYPDPRGAPW
# B8: Cyclin-dependent kinase 2-interacting protein (Homo sapiens), Q9BW66 (parent)
# chain: MEAKTLGTVTPRKPVLSVSARKIKDNAADWHNLILKWETLNDAGFTTANNIANLKISLLNKDKIELDSSSPASKENEEKVCLEYNEELEKLCEELQATLDGLTKIQVKMEKLSSTTKGICELENYHYGEESKRPPLFHTWPTTHFYEVSHKLLEMYRKELLLKRTVAKELAHTGDPDLTLSYLSMWLHQPYVESDSRLHLESMLLETGHRAL
# partner: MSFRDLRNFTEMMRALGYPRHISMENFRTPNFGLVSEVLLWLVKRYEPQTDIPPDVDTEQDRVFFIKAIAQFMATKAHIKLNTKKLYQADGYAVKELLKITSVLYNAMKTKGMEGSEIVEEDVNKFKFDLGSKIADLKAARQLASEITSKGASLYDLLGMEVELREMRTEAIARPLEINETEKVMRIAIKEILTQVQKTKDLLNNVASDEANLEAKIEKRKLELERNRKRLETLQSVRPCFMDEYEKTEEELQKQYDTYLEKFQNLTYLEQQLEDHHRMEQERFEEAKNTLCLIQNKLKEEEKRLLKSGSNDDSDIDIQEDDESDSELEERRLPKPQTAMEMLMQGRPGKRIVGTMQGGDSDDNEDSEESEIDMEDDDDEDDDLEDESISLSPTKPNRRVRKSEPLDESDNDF
# Variants of: B1
# Settings: with fos_human FOS
row,effect of a mutation on the interaction,Variant
1,with no effect,A9T
2,with no effect,M74V

# Variants of: B2
# Settings: with mcsp_human SMCP
row,effect of a mutation on the interaction,Variant
1,with no effect,A115T
2,with no effect,R74Q

# Variants of: B3
# Settings: with srsf6_human SRSF6, Q13247
# Sequence of srsf6_human SRSF6, Q13247 (Q13247 whole entry, looked up): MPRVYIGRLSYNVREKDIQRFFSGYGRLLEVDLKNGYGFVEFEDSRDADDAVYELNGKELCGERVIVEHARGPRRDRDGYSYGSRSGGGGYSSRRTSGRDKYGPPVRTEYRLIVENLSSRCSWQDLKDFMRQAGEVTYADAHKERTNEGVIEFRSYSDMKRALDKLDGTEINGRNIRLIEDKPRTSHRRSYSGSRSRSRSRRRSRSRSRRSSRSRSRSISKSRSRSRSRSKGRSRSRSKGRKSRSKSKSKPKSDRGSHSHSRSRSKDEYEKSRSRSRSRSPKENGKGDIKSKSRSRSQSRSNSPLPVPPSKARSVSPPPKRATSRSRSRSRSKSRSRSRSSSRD
row,effect of a mutation on the interaction,Variant
1,with no effect,G338A

# Variants of: B4
# Settings: with magc2_human MAGEC2, Q9UBF1
row,effect of a mutation on the interaction,Variant
1,disrupting interaction strength,S378L

# Variants of: B5
# Settings: with ssxt_human SS18, Q15532
# Sequence of ssxt_human SS18, Q15532 (Q15532 whole entry): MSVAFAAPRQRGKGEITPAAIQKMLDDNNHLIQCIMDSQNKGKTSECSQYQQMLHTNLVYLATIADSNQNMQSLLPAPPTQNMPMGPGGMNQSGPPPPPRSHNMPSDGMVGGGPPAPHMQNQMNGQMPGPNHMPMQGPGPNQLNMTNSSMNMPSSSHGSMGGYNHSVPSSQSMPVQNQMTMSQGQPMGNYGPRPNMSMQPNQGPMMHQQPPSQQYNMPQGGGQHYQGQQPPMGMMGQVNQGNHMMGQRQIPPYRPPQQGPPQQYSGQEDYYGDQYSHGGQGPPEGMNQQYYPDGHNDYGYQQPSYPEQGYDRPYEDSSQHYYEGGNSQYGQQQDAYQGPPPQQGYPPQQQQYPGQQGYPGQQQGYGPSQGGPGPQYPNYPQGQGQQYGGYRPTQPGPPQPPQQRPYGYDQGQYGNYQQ
row,effect of a mutation on the interaction,Variant
1,with no effect,V29A

# Variants of: B6
# Settings: with krt38_human KRT38, O76015
row,effect of a mutation on the interaction,Variant
1,with no effect,A517G

# Variants of: B7
# Settings: with ikzf1_human IKZF1, Q13422
# Sequence of ikzf1_human IKZF1, Q13422 (Q13422 whole entry): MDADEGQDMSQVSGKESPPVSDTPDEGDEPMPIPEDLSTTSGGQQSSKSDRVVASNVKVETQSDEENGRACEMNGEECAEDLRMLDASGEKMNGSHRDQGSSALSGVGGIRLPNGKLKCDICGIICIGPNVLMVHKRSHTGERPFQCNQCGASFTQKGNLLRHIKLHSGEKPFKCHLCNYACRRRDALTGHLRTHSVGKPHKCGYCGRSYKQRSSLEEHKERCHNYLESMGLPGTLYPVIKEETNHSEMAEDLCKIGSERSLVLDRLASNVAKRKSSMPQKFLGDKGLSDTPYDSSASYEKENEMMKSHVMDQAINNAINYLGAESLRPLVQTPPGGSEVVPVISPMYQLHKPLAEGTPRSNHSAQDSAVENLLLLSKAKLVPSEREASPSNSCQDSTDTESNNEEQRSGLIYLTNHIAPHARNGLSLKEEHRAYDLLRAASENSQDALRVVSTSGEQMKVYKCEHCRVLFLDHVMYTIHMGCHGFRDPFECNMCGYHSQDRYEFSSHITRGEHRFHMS
row,effect of a mutation on the interaction,Variant
1,with no effect,R213C
2,with no effect,N226S

# Variants of: B8
# Settings: with clua1_human CLUAP1, Q96AJ1
row,effect of a mutation on the interaction,Variant
1,disrupting interaction strength,R164H
